In this data set the target is 48 discrete histone H3 peptides containing a wide range of histone modifications at defined residues (micro-array bound).

Consider one protein from US20090149343.

B1: recombinant human histone methyl-transferase SET 7/9 (protein)
chain: MDSDDEMVEEAVEGHLDDDGLPHGFCTVTYSSTDRFEGNFVHGEKNGRGKFFFFDGSTLEGYYVDDALQGQGVYTYEDGGVLQGTYVDGELNGPAQEYDTDGRLIFKGQYKDNIRHGVCWIYYPDGGSLVGEVNEDGEMTGEKIAYVYPDERTALYGKFIDGEMIEGKLATLMSTEEGRPHFELMPGNSVYHFDKSTSSCISTNALLPDPYESERVYVAESLISSAGEGLFSKVAVGPNTVMSFYNGVRITHQEVDSRDWALNGNTLSLDEETVIDVPEPYNHVSKYCASLGHKANHSFTPNCIYDMFVHPRFGPIKCIRTLRAVEADEELTVAYGYDHSPPGKSGPEAPEWYQVELKAFQATQQK
As for B1, the “SET 7/9 dependent methylation of micro-array bound histone peptides, detected by anti-H3K4me1 antibody” value is recorded as “also detects a large number of newly created additional sites containing this epitope after HMTase incubation”.
